Paper PMC6342957, “Structural consequence of the most frequently recurring cancer-associated substitution in DNA polymerase ε”

Biological target: T1, Pol2CORE P301R (DNA polymerase epsilon catalytic core) (Saccharomyces cerevisiae, UniProt P21951 1-1187, P301R)
T1 sequence: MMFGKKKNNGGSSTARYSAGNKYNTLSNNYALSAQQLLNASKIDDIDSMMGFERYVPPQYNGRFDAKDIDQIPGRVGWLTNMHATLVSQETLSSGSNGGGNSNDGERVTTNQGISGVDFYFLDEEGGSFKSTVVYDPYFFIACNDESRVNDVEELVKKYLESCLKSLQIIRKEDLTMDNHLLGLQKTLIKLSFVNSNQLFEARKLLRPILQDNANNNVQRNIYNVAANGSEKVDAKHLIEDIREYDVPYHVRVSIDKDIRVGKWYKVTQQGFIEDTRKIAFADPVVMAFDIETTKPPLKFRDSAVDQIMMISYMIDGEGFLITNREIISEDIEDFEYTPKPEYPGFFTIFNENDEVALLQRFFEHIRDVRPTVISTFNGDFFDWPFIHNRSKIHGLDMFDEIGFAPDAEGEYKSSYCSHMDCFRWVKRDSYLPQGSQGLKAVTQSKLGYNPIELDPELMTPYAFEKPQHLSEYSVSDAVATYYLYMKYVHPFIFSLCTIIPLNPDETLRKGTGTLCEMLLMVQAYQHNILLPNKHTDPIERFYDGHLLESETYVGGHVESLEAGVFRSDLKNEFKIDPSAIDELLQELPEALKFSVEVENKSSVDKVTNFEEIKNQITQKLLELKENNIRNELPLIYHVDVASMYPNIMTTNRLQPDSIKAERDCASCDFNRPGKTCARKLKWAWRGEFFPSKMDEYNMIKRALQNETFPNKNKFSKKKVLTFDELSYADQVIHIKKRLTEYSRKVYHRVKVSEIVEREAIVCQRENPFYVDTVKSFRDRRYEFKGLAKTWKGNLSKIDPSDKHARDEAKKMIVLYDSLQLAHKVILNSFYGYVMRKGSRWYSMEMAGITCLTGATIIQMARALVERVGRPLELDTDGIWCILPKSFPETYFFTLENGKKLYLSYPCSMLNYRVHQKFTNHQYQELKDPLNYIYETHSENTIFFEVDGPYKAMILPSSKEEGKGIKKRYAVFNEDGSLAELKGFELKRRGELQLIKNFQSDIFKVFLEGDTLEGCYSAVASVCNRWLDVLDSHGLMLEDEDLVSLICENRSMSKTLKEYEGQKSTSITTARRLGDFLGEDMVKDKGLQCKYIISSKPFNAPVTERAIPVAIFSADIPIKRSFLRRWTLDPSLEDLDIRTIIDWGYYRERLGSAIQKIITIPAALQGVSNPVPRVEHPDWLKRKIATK
Test: X-ray crystallography; incoming dNTP; Ca2+ in exonuclease A-site; Crystallization conditions not in the material; protein stored in 25 mM Tris-Ac pH 7.5, 10% glycerol, 800 mM NaAc
Conditions: protein: recombinant; tags: 6xHis removed with PreScission protease; 5' overhang 5 nt on template (recessed primer 3' end)

B1: KP11ddC/KT16 primer-template (dsDNA)
DNA 1: TAACCGCGTTC
DNA 2: CTCTTGAACGCGGTTA
modifications: 3'-terminal dideoxy-C on primer
  binding result: binds
